In article PMC2413427, “Free Brick1 Is a Trimeric Precursor in the Assembly of a Functional Wave Complex” (PLoS ONE, 2008):

What was measured:
[1] = molecular target: human Brk1, in vitro translated, N-terminally tagged (PC-Brk1; the other copies in the self-association experiments are SBP-, Flag- or HA-Brk1) (human) (UniProt Q8WUW1); assay: co-IP; PC-Brk1, SBP-Brk1 and HA-Wave2 co-translated in vitro; PC immunoprecipitation, then SBP precipitation or HA immunoprecipitation as a second step
[2] = molecular target: the molecule itself; assay: cross-linking; pooled SEC fractions of partially purified free untagged Brk1; glutaraldehyde 0.2% final or 2-fold dilutions, 50 mM Tris pH 8.0, 10 min, room temperature; Brk1 western blot
[3] = molecular target: the molecule itself; assay: co-IP; PC-, SBP-, Flag- and HA-Brk1 co-produced by in vitro translation with 35S-methionine; three sequential native precipitations (PC eluted with EDTA, SBP on streptavidin eluted with biotin, then Flag or HA); autoradiography

Q: How did the stoichiometry N [1] turn out when “HA-Wave2, in vitro translated (from UniProt Q9Y6W5 1-498) (natural protein)” was run?
A: The stoichiometry N was 1.

B1: untagged Brk1 (free Brk1), partially purified from transfected 293T cells (natural protein, human, UniProt Q8WUW1 1-75, looked up)
chain: MAGQEDPVQREIHQDWANREYIEIITSSIKKIADFLNSFDMSCRSRLATLNEKLTALERRIEYIEARVTKGETLT
notes: Brick1 (Brk1, Hspc300), human, untagged cDNA; printed mass 8.7 kDa; that is not this construct; The fraction holds many other proteins but no Wave complex; also called Brick1; Hspc300; source: 293T, transfected with pCS2-Brk1, partially purified (35%-55% ammonium sulfate cut, SEC on superdex-200)
Q: For B1, which “stoichiometry N” value [2] is on record?
A: Its value is 3.

B2: human Brk1, in vitro translated, N-terminally tagged (PC-Brk1; the other copies in the self-association experiments are SBP-, Flag- or HA-Brk1) (natural protein, UniProt Q8WUW1 1-75, looked up)
chain: B1 chain
notes: Brick1 (Brk1, Hspc300), human; One molecule stands for the differently tagged copies of human Brk1 that were co-translated; also called SBP-Brk1; Flag-Brk1; source: in vitro translated (TnT, rabbit reticulocyte lysate, 35S-methionine), pCS2 plasmid; not shown: PC, N-terminal, kept
Q: With B2 as the molecule, how does the “stoichiometry N” value [3] read?
A: The value was 3.
